The target in test [1] is T1, human CD39 expressed on the cell surface (human, UniProt P49961 1-510).
T1 sequence: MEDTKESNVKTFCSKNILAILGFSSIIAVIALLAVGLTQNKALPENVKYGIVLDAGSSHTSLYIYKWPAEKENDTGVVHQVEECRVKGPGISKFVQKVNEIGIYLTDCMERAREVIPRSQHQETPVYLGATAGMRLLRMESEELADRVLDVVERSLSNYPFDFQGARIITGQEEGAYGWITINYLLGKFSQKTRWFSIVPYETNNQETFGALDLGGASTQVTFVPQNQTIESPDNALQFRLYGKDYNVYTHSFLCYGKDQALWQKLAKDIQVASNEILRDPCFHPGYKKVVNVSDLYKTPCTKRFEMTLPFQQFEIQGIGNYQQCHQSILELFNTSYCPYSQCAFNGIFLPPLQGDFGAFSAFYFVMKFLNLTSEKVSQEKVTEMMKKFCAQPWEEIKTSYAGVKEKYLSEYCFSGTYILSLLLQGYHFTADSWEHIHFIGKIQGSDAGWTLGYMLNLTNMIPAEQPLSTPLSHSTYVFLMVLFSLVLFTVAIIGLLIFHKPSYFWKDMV
The experiment in a line: cell-based or functional assay.

For test [2], the target named is T2, recombinant human CD39 (soluble) (human, UniProt P49961 38-478, limits assumed).
T2 sequence (looked up): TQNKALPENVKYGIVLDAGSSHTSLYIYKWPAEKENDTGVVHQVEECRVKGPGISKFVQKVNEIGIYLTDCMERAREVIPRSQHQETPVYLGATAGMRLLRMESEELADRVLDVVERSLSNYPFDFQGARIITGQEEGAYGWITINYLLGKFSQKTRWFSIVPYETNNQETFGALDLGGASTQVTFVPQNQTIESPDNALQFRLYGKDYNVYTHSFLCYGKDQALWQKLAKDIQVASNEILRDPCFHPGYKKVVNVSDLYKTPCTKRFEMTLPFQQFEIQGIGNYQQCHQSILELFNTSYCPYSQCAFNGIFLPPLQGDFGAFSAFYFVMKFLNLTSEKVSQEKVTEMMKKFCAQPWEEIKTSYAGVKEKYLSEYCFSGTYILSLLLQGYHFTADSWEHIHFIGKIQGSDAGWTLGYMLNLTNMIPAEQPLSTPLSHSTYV
Nature of the test: cell-based or functional assay.

Test [3] addresses T1, human CD39 expressed on the cell surface. Nature of the test: cell-based or functional assay. This is another data set of the same source.
Test [4] shares this target. Nature of the test: cell-based or functional assay. The source holds these as a separate data set.
The target is the same in test [5]. Nature of the test: FACS on CHO-K1 cells overexpressing human CD39.
The target of test [6] is T3, cynomolgus monkey CD39 expressed on HEK-293 cells (cynomolgus monkey, UniProt P49961 5-510 (human entry)).
T3 construct: also called Cynomolgus Monkey CD39-HEK293
T3 chain: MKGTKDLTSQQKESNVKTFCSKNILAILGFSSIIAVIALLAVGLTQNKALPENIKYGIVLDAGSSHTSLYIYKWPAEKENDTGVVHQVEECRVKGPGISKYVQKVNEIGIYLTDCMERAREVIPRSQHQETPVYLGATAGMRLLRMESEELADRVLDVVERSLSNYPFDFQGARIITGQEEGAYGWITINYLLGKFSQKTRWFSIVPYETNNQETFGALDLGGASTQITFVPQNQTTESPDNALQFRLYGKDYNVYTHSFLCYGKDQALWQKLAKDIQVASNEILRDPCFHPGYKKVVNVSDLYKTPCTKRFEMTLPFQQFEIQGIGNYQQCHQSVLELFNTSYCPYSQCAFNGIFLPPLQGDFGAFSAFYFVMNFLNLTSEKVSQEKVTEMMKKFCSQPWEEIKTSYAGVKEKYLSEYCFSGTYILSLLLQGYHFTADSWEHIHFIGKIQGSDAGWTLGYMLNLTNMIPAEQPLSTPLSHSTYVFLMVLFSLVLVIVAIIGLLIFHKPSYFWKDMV
The experiment in a line: FACS on HEK293 cells overexpressing cynomolgus CD39.

For test [7], the target named is T1, human CD39 expressed on the cell surface. Nature of the test: flow cytometry on purified human CD14+ monocytes, 0 uM ATP. Background: A flow cytometer gives signals particle by particle.
The target is the same in test [8]. The experiment in a line: flow cytometry on purified human CD14+ monocytes, 400 uM ATP.
Test [9] has as its target T4, murine CD39 expressed on HEK-293 cells (murine, UniProt P55772 1-510).
T4 construct: also called mouse CD39
T4 sequence: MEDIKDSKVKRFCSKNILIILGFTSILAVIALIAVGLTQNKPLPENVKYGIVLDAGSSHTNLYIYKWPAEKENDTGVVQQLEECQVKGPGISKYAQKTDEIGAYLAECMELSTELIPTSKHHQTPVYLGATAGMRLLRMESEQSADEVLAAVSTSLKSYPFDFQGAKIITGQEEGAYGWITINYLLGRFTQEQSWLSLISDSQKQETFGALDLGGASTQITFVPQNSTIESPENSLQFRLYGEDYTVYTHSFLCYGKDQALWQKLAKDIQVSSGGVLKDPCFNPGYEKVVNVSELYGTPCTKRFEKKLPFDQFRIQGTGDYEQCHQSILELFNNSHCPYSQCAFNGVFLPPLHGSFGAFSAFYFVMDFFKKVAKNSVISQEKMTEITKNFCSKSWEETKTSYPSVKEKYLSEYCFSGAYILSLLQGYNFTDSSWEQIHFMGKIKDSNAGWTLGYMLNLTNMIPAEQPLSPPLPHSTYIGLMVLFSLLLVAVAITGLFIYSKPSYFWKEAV
Nature of the test: FACS on HEK-293 cells overexpressing murine CD39 (method of Example 1).

Test [10] concerns the target T5, soluble His-tagged human CD39 ECD protein (human, UniProt P49961 38-478).
T5 construct: also called human CD39 ECD His-tagged antigen; Sino Biological Cat. No. 16020-H08B
T5 sequence: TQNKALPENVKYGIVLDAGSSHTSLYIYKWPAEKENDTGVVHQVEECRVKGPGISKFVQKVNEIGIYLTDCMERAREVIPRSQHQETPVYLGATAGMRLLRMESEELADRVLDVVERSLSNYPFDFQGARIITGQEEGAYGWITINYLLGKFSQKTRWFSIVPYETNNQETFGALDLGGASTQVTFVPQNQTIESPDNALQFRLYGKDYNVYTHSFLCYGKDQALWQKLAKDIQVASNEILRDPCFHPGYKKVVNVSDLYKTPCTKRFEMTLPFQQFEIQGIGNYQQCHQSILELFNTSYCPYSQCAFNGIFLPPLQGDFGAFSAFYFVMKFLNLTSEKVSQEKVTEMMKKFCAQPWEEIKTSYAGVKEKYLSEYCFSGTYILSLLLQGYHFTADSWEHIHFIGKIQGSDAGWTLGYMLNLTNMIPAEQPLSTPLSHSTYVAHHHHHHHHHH
Nature of the test: SPR (Biacore 8K), antibody captured via anti-human Fc, CD39 ECD analyte. A general note: In SPR one partner is held on a chip, and binding of the other changes the refractive index at the surface.

For test [11], the target named is T5, soluble His-tagged human CD39 ECD …. Nature of the test: SPR (Biacore 8K), antibody captured via anti-human Fc, CD39 ECD analyte, 25 C.
The target is the same in test [12]. The experiment in a line: SPR (Biacore 8K), antibody captured via anti-human Fc, CD39 ECD analyte. The source holds these as a separate data set.

Usually EC50 stands for the midpoint of the concentration-response curve. The Kd is the concentration at which binding is half-saturated. Usually koff stands for a measure of how fast the partners let go of each other. Usually kon stands for the rate constant with which the complex forms.

B1: ch31_IGG4.P (antibody, human IgG4 S228P, kappa, V domains shown)
VH: EVHLQQSGAALVRPGTSVKLPCKVSGDSITAYFMHFVRQRPGQGLEWMGRIDPDHERTKYAEKFKNRASLTSETSSNTVFLQLTSLTSEDTATYFCTTERVPGFETDYWGQGVMVTVSS
VL: DIVLTQSPTLAVSLGQRATISCRTNQTVDHYGTTYMNWYQQKPGQQPKLLIYLASSLASGIPARFSGRGSGTDFTLTIDPVEADDTATYYCQQSRNLWTFGGGTKLELKR
notes: rat/human chimera of antibody 31, human IgG4 (S228P), kappa
Consider B1, for which, in test [1], the “Human THP-1 CD39 inhibition IC50” value stood at 0.09 nM. Moreover, in [2], the “IC50, inhibition of recombinant CD39 enzymatic activity, 20 uM ATP” value (shortened to “IC50, inhibition”) was determined as 1.3 nM and the “Max Inhibition (%), recombinant CD39, 20 uM ATP” value (from here on “Max Inhibition (%) … 20 uM ATP”) came to 100%. Also, in test [3], the “IC50, CD39 enzymatic inhibition on SK-MEL-5 cells, 20 uM ATP” value amounted to 2.4 nM and the “Max Inhibition (%), SK-MEL-5 cells” value came to 63%. Further, in [4], the “IC50, CD39 enzymatic inhibition on THP-1 cells, 20 uM ATP” value turned out to be 0.14 nM and the “Max Inhibition (%), THP-1 cells” value came out at 86%. The same molecule had a concentration giving a half-maximal response (EC50) in test [5] of 4.44 nM. Besides, the response in [6] was half-maximal at 2.55 nM (EC50). The molecule also had a 50% effective concentration (EC50) in [7] of 27 nM. Further, the EC50 in [8] turned out to be 28 nM. Further, the binding result in test [9] is “no binding”. Also, in test [10], binding was characterised by a dissociation constant (Kd) of 0.129 nM, the off-rate constant (koff) came to 0.00015 s⁻¹ and the kon amounted to 1.16e+06 M⁻¹ s⁻¹. Moreover, in [11], the dissociation constant (Kd) worked out at 0.113 nM, the off-rate constant (koff) was found to be 0.000125 s⁻¹ and the kon came to 1.1e+06 M⁻¹ s⁻¹.

B2: ch39_IGG4.P (antibody, human IgG4 S228P, kappa)
heavy: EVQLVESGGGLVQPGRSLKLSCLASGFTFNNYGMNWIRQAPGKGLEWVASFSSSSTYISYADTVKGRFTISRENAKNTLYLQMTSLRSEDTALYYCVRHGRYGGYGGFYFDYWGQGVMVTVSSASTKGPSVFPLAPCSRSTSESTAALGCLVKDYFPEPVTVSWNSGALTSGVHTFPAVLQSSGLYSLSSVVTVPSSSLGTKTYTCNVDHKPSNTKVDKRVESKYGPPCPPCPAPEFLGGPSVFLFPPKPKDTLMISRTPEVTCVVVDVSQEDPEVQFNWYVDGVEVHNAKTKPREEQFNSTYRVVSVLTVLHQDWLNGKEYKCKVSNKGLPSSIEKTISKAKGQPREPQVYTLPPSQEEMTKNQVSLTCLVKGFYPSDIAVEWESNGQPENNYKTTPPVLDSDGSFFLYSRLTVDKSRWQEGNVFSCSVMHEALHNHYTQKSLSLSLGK
light: DTVLTQSPALAVSPGERVSISCRASEGVKSYMHWYQQKPGQQPKLLIYKASNLASGVPARFSGSGSGTDFTLTIDPVEADDTATYFCQQSWNDPTFGAGTKLELKRTVAAPSVFIFPPSDEQLKSGTASVVCLLNNFYPREAKVQWKVDNALQSGNSQESVTEQDSKDSTYSLSSTLTLSKADYEKHKVYACEVTHQGLSSPVTKSFNRGEC
notes: rat/human chimera of antibody 39, human IgG4 (S228P), kappa
With B2, the “Human THP-1 CD39 inhibition IC50” value in test [1] turned out to be 0.042 nM. In addition, in test [2], the “IC50, inhibition” value amounted to 2.3 nM and the “Max Inhibition (%) … 20 uM ATP” value is 100%. Besides, in test [3], the “IC50, CD39 enzymatic inhibition on SK-MEL-5 cells, 20 uM ATP” value amounted to 0.56 nM and the “Max Inhibition (%), SK-MEL-5 cells” value was found to be 63%. Besides, in [4], the “IC50, CD39 enzymatic inhibition on THP-1 cells, 20 uM ATP” value came out at 0.11 nM and the “Max Inhibition (%), THP-1 cells” value is 67%. Further, in [5], the EC50 amounted to 0.79 nM. Further, the 50% effective concentration (EC50) in test [6] worked out at 0.32 nM. In [7], this molecule had a 50% effective concentration (EC50) of 0.69 nM. In [8], it took 1.3 nM to reach a half-maximal effect (EC50). The binding result in test [9] was “no binding”. In test [12], this molecule showed a Kd of 0.336 nM, a koff of 9.4e-05 s⁻¹ and a kon of 280000 M⁻¹ s⁻¹. In test [11], this molecule gave a dissociation constant Kd of 0.214 nM, a koff of 7.45e-05 s⁻¹ and a kon of 348000 M⁻¹ s⁻¹.

B3: ch19_IGG4.P (antibody, human IgG4 S228P, kappa, V domains shown)
VH: QVQLKETGPGLVQPTQTLSITCTVSGFSLTSYFTQWVRQTPGKGLEWMGFIRSGGSTQYNSAFKSRLSISRDTSKNQVFLKMNSLKTEDTGVYYCARDRPDYHDGTYGVLDVWGQGASVTVSS
VL: DIRMTQSPASLSASLGETVNIECLASEDIDSDLAWYQKKPGKSPQLLIYNGNALQNGVPSRFSGSGSGTHFSLKINSLQSEDVATYFCQQYINYPYTFGGGTKLELRR
notes: rat/human chimera of antibody 19, human IgG4 (S228P), kappa
Regarding B3, in test [1], the “Human THP-1 CD39 inhibition IC50” value stood at 0.44 nM. In test [2], the “IC50, inhibition” value was found to be 1.8 nM and the “Max Inhibition (%) … 20 uM ATP” value was determined as 100%. Further, in [3], the “IC50, CD39 enzymatic inhibition on SK-MEL-5 cells, 20 uM ATP” value amounted to 5.4 nM and the “Max Inhibition (%), SK-MEL-5 cells” value worked out at 55%. For the same molecule, in test [4], the “IC50, CD39 enzymatic inhibition on THP-1 cells, 20 uM ATP” value came out at 0.75 nM and the “Max Inhibition (%), THP-1 cells” value amounted to 75%. This molecule also displayed an EC50 in test [5] of 9.04 nM. Besides, the EC50 in test [6] was 4.3 nM. Further, in [7], a half-maximal effect (EC50) was put at 61 nM. This molecule showed an EC50 in [8] of 49 nM. In test [9], the binding result is listed as “no binding”. Also, in [11], the Kd came out at 0.443 nM, the koff was determined as 0.0004 s⁻¹ and the on-rate (kon) came to 902000 M⁻¹ s⁻¹.

Source of the values: US20250084178A1 (ARCUS BIOSCIENCES, published 2025).
